In PMC4383634, “Dual-Specificity Anti-sigma Factor Reinforces Control of Cell-Type Specific Gene Expression in Bacillus subtilis” (PLoS Genetics, 2015):

Assays:
Details in all cases: both partners purified
[1] = target: T1, GST-σ^E fusion protein, lacking its pro region (sigma fragment a) (B. subtilis, UniProt P06222 30-239); assay: pull-down; GST or GST-σ^E fusions on glutathione beads incubated with CsfB-Strep II (100 nM); after washing, eluted proteins immunoblotted with anti-Strep II tag antibody
T1 construct: source: E. coli, overproduced and partially purified; not shown: GST, N-terminal, kept
T1 sequence (looked up): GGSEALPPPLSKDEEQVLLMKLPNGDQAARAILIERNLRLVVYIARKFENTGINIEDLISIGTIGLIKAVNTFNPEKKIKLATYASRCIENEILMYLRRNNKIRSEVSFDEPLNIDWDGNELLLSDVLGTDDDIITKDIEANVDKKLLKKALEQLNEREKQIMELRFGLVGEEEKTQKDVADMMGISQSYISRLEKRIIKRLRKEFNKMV

[2] = target: T2, GST-σ^(E 30–141) (B. subtilis, UniProt P06222 30-141); assay: as above
T2 construct: also called fragment c; regions 2.1 through 2.4; source: E. coli, overproduced and partially purified; not shown: GST, N-terminal, kept
T2 sequence (looked up): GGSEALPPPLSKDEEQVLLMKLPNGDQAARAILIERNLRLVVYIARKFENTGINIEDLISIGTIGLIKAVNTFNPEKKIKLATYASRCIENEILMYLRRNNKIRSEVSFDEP

[3] = target: T3, GST-σ^(E 30–172) (B. subtilis, UniProt P06222 30-172); assay: as above
T3 construct: σ^E of B. subtilis, residues 30-172, regions 2.1 through 3.1; also called fragment d; regions 2.1 through 3.1; source: E. coli, overproduced and partially purified; not shown: GST, N-terminal, kept
T3 sequence (looked up): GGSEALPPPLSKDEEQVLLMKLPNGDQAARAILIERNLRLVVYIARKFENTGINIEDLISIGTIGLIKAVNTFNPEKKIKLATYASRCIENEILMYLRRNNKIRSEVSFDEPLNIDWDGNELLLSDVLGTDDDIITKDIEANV

[4] = target: T4, σ^E, untagged, lacking its pro-sequence (B. subtilis, UniProt P06222 30-239); assay: pull-down; Ni2+-NTA affinity chromatography: His6-CsfB held on the column, untagged purified σ^E or σ^K applied, eluted with an imidazole buffer, SDS-PAGE and Coomassie staining
T4 construct: printed molecular weight 29 kDa; a tag was perhaps removed; also called purified σ^E; source: E. coli, overproduced, purified
T4 sequence (looked up): T1 sequence (looked up)

B1: CsfB-StrepII-tagged protein (natural protein, B. subtilis, UniProt P37534 1-64, looked up)
chain: MDETVKLNHTCVICDQEKNRGIHLYTKFICLDCERKVISTSTSDPDYAFYVKKLKSIHTPPLYS
notes: CsfB (Gin), anti-sigma factor of B. subtilis; source: E. coli, overproduced and partially purified; not shown: Strep II tag, C-terminal, kept
B1: binds [1]; binds [2]; binds [3].

B2: His6-CsfB (natural protein, B. subtilis, UniProt P37534 1-64, looked up)
chain: B1 chain
notes: CsfB (Gin), anti-sigma factor of B. subtilis; the plasmid is described in S1 Text; also called purified CsfB; source: E. coli, overproduced, purified (Ni-NTA, Superdex 75); not shown: His6, N-terminal, kept
B2: binds [4].
